Test results taken from article PMC4072508, “Genome-Wide Prediction and Validation of Peptides That Bind Human Prosurvival Bcl-2 Proteins” (PLoS Computational Biology, 2014).

T1: Bcl-w, Q92843
T1 chain: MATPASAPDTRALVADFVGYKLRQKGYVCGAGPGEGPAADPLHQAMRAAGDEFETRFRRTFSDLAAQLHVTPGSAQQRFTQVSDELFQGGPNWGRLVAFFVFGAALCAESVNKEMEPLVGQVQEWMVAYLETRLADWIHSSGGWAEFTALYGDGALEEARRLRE

T2: Bfl-1, Q16548
T2 chain: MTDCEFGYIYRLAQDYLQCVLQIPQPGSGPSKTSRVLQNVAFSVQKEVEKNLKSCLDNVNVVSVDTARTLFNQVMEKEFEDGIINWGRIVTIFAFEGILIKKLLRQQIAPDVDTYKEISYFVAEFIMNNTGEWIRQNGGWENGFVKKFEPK

T3: Mcl-1, Q07820
T3 chain: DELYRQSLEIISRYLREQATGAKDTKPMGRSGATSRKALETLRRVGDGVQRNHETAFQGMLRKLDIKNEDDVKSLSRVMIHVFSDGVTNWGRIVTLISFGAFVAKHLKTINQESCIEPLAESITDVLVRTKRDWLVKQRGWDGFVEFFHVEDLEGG

T4: Bcl-2, P10415
T4 chain: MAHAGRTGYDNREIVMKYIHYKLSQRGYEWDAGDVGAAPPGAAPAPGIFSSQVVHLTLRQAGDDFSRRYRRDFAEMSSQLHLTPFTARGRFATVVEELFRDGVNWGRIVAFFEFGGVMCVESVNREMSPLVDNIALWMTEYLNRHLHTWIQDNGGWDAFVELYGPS


What was measured:
Bcl-2, P10415 [1] = experiment: peptide SPOT array, c-Myc-tagged receptor at 1 uM or 100 nM, anti-c-Myc-Cy3
Target sequence in this assay (P10415 1-217): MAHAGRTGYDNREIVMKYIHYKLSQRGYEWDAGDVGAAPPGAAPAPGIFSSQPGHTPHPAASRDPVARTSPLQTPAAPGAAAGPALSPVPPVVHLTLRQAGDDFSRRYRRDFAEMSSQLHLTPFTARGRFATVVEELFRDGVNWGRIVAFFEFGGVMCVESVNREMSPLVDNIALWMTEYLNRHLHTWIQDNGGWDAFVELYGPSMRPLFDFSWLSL

Bcl-w, Q92843 [2] = target: T1, Bcl-w, Q92843; experiment: as above
Bcl-xL, Q07817 [3] = experiment: as above
Bfl-1, Q16548 [4] = target: T2, Bfl-1, Q16548; experiment: as above
Mcl-1, Q07820 [5] = target: T3, Mcl-1, Q07820; experiment: as above
Bcl-2, P10415 [6] = target: T4, Bcl-2, P10415; experiment: fluorescence polarisation, direct titration of receptor into 10 nM labelled peptide
Bcl-w, Q92843 [7] = target: T1, Bcl-w, Q92843; experiment: as above
Bcl-xL, Q07817 [8] = experiment: as above
Bfl-1, Q16548 [9] = target: T2, Bfl-1, Q16548; experiment: as above
Mcl-1, Q07820 [10] = target: T3, Mcl-1, Q07820; experiment: as above

Sequence of Bcl-xL, Q07817 (Q07817 1-209): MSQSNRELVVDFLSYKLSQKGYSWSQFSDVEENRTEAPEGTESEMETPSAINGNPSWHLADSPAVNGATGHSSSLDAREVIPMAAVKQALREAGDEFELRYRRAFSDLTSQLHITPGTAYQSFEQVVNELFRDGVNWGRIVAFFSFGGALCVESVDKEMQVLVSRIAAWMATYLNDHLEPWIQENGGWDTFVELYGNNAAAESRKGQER

Binder | SPOT signal as a fraction of Bim BH3's signal on the same receptor and array (Bcl-2, P10415 [1]) | SPOT signal as a fraction of Bim BH3's signal on the same receptor and array (Bcl-w, Q92843 [2]) | SPOT signal as a fraction of Bim BH3's signal on the same receptor and array (Bcl-xL, Q07817 [3]) | SPOT signal as a fraction of Bim BH3's signal on the same receptor and array (Bfl-1, Q16548 [4]) | SPOT signal as a fraction of Bim BH3's signal on the same receptor and array (Mcl-1, Q07820 [5]) | Kd (Bcl-2, P10415 [6]) [µM] | Kd (Bcl-w, Q92843 [7]) [µM] | Kd (Bcl-xL, Q07817 [8]) [µM] | Kd (Bfl-1, Q16548 [9]) [µM] | Kd (Mcl-1, Q07820 [10]) [µM]
RYRHGAPAEQLRHLADMLTTKWATLQ [PLEKHH1] | 0.28 | 0.81 | 1.44 | 0.56 | 0.41 | 1.5 | 1.4 | 0.65 | > 5.68 | 0.977
ATKRETAATFLKKVAKEFGFQNNGFS [NPLOC4] | 0.25 | 0.77 | 0.73 | 0.41 | 0.23 | 2.06 | > 4.5 | > 100 | > 4.67 | > 4
SSLSDGLPVHLANIADELTQKKKMFK [AGBL2] | 0.105 | 0.74 | 0.25 | 0.15 | 0.11 | > 100 | 5.87 | > 4 | > 4.67 | > 5.03
RYPILENPEILRKTADDFLNRIALTD [CCNH] | 0.04 | 0.24 | 0.06 | 0.02 | 0.02 | 7.13 | 1.92 | > 5.72 | > 9.62 | > 4

Results, then the binder that gave them:

SPOT signal as a fraction of Bim BH3's signal on the same receptor and array (Bcl-2, P10415 [1]) | SPOT signal as a fraction of Bim BH3's signal on the same receptor and array (Bcl-w, Q92843 [2]) | SPOT signal as a fraction of Bim BH3's signal on the same receptor and array (Bcl-xL, Q07817 [3]) | SPOT signal as a fraction of Bim BH3's signal on the same receptor and array (Bfl-1, Q16548 [4]) | SPOT signal as a fraction of Bim BH3's signal on the same receptor and array (Mcl-1, Q07820 [5]) | Kd (Bcl-2, P10415 [6]) [µM] | Kd (Bcl-w, Q92843 [7]) [µM] | Kd (Bcl-xL, Q07817 [8]) [µM] | Kd (Bfl-1, Q16548 [9]) [µM] | Kd (Mcl-1, Q07820 [10]) [µM] | Binder
0.01 | 0.02 | 0.04 | 0.01 | 0.09 | > 3.04 | > 6.56 | > 4 | > 4.07 | 0.022 | NATHEEVVHLLRNAGDEVTITVEYLR [SNTG2]
0.06 | 0.29 | 0.29 | 0.11 | 0.05 | 0.975 | 0.361 | 4.55 | > 4.67 | > 6.07 | KSRLVQQSKALKELADELQERCQRPA [TRIM58]
0.01 | 0.27 | 0.04 | 0.01 | 0.01 | 0.086 | 0.249 | 1.49 | > 10 | 2.38 | TRELQELARKLQELADASENLLTENT [TXNDC11]
